From patent US7410774B1, “Compounds modulating sister chromatid separation and method for identifying same” (Boehringer Ingelheim International GmbH, priority 1999, dated 2008)
Numbering of substitutions follows the chain as printed.

T1: Scc1p with arginine 268 mutated to aspartic acid, HA tagged, Q12158
T1 chain: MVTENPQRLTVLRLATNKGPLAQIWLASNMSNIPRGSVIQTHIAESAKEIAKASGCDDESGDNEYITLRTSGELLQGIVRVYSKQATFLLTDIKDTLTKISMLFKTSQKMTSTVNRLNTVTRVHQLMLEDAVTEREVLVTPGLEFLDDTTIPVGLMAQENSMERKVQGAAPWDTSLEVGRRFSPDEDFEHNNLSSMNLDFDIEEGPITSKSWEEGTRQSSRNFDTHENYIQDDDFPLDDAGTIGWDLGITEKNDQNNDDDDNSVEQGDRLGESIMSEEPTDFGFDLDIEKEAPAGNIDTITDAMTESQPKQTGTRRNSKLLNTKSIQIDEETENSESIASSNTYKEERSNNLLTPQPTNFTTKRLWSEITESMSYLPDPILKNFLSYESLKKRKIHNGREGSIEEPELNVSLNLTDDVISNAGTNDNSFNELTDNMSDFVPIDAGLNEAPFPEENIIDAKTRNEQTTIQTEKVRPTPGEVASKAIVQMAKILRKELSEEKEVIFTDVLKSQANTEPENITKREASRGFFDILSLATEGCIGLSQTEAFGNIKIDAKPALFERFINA

T2: Scc1p tagged with myc epitopes at the C-terminus (endogenous wild type), Q12158
T2 chain: T1 chain with D268R

T3: Purified recombinant Scc1 with C-terminal FLAG epitope, from okadaic acid treated insect cells, mitotically phosphorylated form, Q12158
T3 chain: T1 chain with D268R

T4: Scc1p tagged with multiple HA epitopes, chromatin-bound (chromatin of nocodazole-arrested yeast), Q12158
T4 chain: T1 chain with D268R

T5: Scc1p R180D R268D double mutant, HA tagged (non-cleavable Scc1p), Q12158
T5 chain: T1 chain with R180D

T6: Purified recombinant Scc1 with C-terminal FLAG epitope, from baculovirus-infected insect cells, unphosphorylated, Q12158
T6 chain: T1 chain with D268R

B1: Esp1p (yeast separin), wild type, overproduced from the GAL1-10 promoter in yeast cell extract (protein)
chain: MMVKQEEPLNEISPNTPMTSKSYLLNDTLSKVHHSGQTRPLTSVLSGDASSNSIGILAMHNNIIRDFTKIASNNIDLAIEDITTVDHSLNSIYSLLKSHHMWGHINSTVKQHLMIIVKLINNNALGLASSEIIFLFNETNLFQAHSLKNILLADFSTWNDYYLSNLKILALQIILKRKLVDEYLPHILELFSHDKRYLLKDPNLKAHALTKIVLSFFSVTTSCKVLFGLKFLQYIKQFKLPFKKFISNITVECFSKNLLHKNYLEMGPNKIYLNSFYLSYSMLYDGLDKIMLLDILSYEETTEVQRAIKSKKEFNEYCNMSENRLLWSCISVDDLNVILENATNFLQNKGKHISATLKCLVCLWSTIRLEGLPKNKDILRQFDCTVIYINSNIKSINDESAAALLSELLGVLSEICIDYKEPKRLSNIISVLFNASVLFKSHSFLLKTANLEISNVLISNDSKTSHRTILKFEKFISSAQSAQKKIEIFSCLFNVYCMLRNDTLSFVFDFCQNAFIHCFTRLKITKFIEFSNSSEIMLSVLYGNSSIENIPSENWSQLSRMIFCSLRGIFDLDPLELNNTFDKLHLLNKYELLIRIVYLLNLDMSKHLTTNLSKITKLYINKWLQKSDEKAERISSFEMDFVKMLLCYLNFNNFDKLSIELSLCIKSKEKYYSSIVPYADNYLLEAYLSLYMIDDALMMKNQLQKTMNLSTAKIEQALLHASSLINVHLWDSDLTAFQIYFGKTLPAMKPELFDINNDHNLPMSLYIKVILLNIKIFNESAKLNIKAGNVISAVIDCRKAQNLALSLLKKKNKLSQGSRLALLKSLSFSFFQLIKIHIRIGSARDCEFYSKELSRIISDLEEPIIVYRCLHFLHRYYMITEQTCLQNITLGKANKAFDYLDAEADITSLTMFLYDNKEFVKLEQSLVLYFGDQLEKTFLPNLWKLHLGKDIDDSICLSEYMPKNVINRVHNMWQKVMSQLEEDPFFKGMFESTLGIPSSLPVIPSTMPNNILKTPSKHSTGLKLCDSPRSSSMTPRGKNIRQKFDRIAAISKLKQMKELLESLKLDTLDNHELSKISSLSSLTLTILSNITSIHNAESSLITNFSLTDLPRHMPLLFDKVLNNIDNKNYREFRVSSLIAPNNISTITESIRVSAAQKDLMESNLNINVITIDFCPITGNLLLSKLEPRRKRRTHLRLPLIRSNSRDLDEVHLSFPEATKKLLSIINESNQTTSVEVTNKIKTREERKSWWTTRYDLDKRMQQLLNNIENSWFNGVQGFFSPEVVDNSLFEKFKDKFYEILHQNLPSRKLYGNPAMFIKVEDWVIELFLKLNPQEIDFLSKMEDLIYFVLDILLFHGEENAYDEIDFSMLHVQLEEQIKKYRATMTTNSIFHTFLVVSSSCHLFPWECLSFLKDLSITRVPSYVCLNKLLSRFHYQLPLQVTIEDNISMILNPNGDLSRTESKFKGMFQKIIDAKPSSQLVMNEKPEEETLLKMLQNSNLFVYIGHGGGEQYVRSKEIKKCTKIAPSFLLGCSSAAMKYYGKLEPTGTIYTYLLGGCPMVLGNLWDVTDKDIDKFSEELFEKMGFRCNTDDLNGNSLSVSYAVSKSRGVCHLRYLNGAAPVIYGLPIKFVS

Tests used:
HeLa cells [1] = assay: SCC1 cleavage and securin degradation in synchronized HeLa cells released into the cell cycle in the presence of nocodazole; type: cell-based, human; conditions: double-thymidine synchronized, immunoblot
Procedure: For cell cycle synchronization, a double-thymidine treatment was used. HeLa cells were first treated with 2 mM thymidine for 18 h. Subsequently, cells were washed with PBS, fresh medium was added and the cells were grown for another 8 h. Then the cells were treated again with 2 mM thymidine for 18 h, subsequently washed and incubated in fresh medium. Samples were taken at different time points. Samples were splitted and used for FACscan analysis and for immunoblotting. Cell extracts were made with glass-teflon potters in ice cold buffer containing 50 mM Tris pH 7.7, 100 mM NaCl, 20 mM b-glycerophosphate, 5 mM MgCl2, 1 mM NaF, 0.1-0.2% Triton X-100, 10% Glycerol, 1 mM DTT and protease inhibitors).
In some experiments logarithmically growing HeLa cells were treated with 330 nM nocodazole dissolved in 0.1% DMSO for 18 hours, or cells synchronized by double-thymidine treatment were released into nocodazole-containing medium for different periods of time. […]
HeLa cells stably expressing SCC1-myc were synchronized by double-thymidine treatment and were released into the cell cycle in the presence of either DMSO (results shown in FIGS. 11A and C) or nocodazole dissolved in DMSO (results shown in FIGS. 11B and D). […] Cells were analyzed by FACsan (FIGS. 11A and B) and by immunoblotting of whole cell extracts using the indicated antibodies (FIGS. 11C and D). […]

HeLa cells [2] = assay: Association of human SCC1 with chromatin (quantitative immunoblotting of chromatin and supernatant fractions); type: cell-based; conditions: HeLa cells arrested in metaphase by nocodazole (56% in logarithmically growing cells)
Procedure: In some experiments logarithmically growing HeLa cells were treated with 330 nM nocodazole dissolved in 0.1% DMSO for 18 hours, or cells synchronized by double-thymidine treatment were released into nocodazole-containing medium for different periods of time. In control experiments 0.1% DMSO was added without nocodazole. Chromatin and supernatant fractions were prepared from HeLa cells that were either growing logarithmically (log) or were arrested in metaphase with nocodazole (noc). Proteins from equivalent aliquots of these fractions were separated by SDS-PAGE and analyzed for the presence of SCC1 by immunoblotting using radiolabeled antibodies (FIG. 8, top panel), The intensities of the SCC1 bands were quantitated (FIG. 8, bottom panel).

[3] = molecular target: T1, Scc1p with arginine 268 mutated to …
[4] = molecular target: T2, Scc1p tagged with myc epitopes at the …
[5] = molecular target: T3, Purified recombinant Scc1 with …
[6] = molecular target: T4, Scc1p tagged with multiple HA epitopes, …
[7] = molecular target: T5, Scc1p R180D R268D double mutant, HA …
[8] = molecular target: T6, Purified recombinant Scc1 with …

Molecule	cleavage of SCC1 (HeLa cells [1])	securin degradation (HeLa cells [1])	amount of the total cellular SCC1 associated with chromatin (HeLa cells [2])	Scc1p cleavage in the Esp1 assay (chromatin substrate) [3]	Scc1p cleavage in Esp1-containing extracts (chromatin substrate) [4]	cleavage assay using purified Scc1 (Western blot, anti-FLAG) [5]	Scc1p cleavage and dissociation from chromatin in vitro (Western blot of chromatin and supernatant fractions) [6]	Scc1p cleavage in Esp1-containing extracts (chromatin substrate) [7]	cleavage assay using purified Scc1 (Western blot, anti-FLAG) [8]
COC(=O)Nc1nc2ccc(C(=O)c3cccs3)cc2[nH]1 [nocodazole]	no cleavage of SCC1 could be observed	not degraded	13%	–	–	–	–	–	–
B1	–	–	–	cleavage at site 268 was indeed eliminated by the aspartic acid mutation. However, the mutated protein was still cleaved in an Esp1-dependent manner	the myc tagged wild type protein was efficiently cleaved	the efficiency of cleavage was much greater when Scc1 was in the mitotically phosphorylated state	most disappears from the chromatin fraction upon incubation with extracts containing high levels of wild type Esp1 protein	HA tagged double mutant protein was no longer cleaved when incubated in Esp1-containing extracts	Both unphosphorylated and phosphorylated purified Scc1 were cleaved in an Esp1-dependent manner in vitro
